# In patent US20230304010A1, “COMPOSITIONS AND METHODS FOR TREATING VIRAL INFECTIONS” (priority 2020, published 2023):
# Tests used:
# [1] = target: SARS-CoV-2 Spike-Fc, Gamma (P1/Brazil) variant (SARS-CoV-2), P0DTC2
# [2] = target: SARS-CoV-2 Spike-Fc, Epsilon (B1429) variant (SARS-CoV-2), P0DTC2
# [3] = target: SARS-CoV-2 Spike-Fc, Alpha (B1.1.7/United Kingdom) variant (SARS-CoV-2), P0DTC2
# [4] = target: SARS-CoV-2 Spike-Fc, Delta (B1 617 2/India) variant (SARS-CoV-2), P0DTC2
# [5] = target: SARS-CoV-2 Spike-Fc, Beta (B1.351/South Africa) variant (SARS-CoV-2), P0DTC2
# ACE2, Q9BYF1 [6] = test: inhibitor screening kit; ACE2:SARS-CoV-2 Spike (Example 4 assay)
# Sequence of ACE2, Q9BYF1 (Q9BYF1 18-740 limits assumed): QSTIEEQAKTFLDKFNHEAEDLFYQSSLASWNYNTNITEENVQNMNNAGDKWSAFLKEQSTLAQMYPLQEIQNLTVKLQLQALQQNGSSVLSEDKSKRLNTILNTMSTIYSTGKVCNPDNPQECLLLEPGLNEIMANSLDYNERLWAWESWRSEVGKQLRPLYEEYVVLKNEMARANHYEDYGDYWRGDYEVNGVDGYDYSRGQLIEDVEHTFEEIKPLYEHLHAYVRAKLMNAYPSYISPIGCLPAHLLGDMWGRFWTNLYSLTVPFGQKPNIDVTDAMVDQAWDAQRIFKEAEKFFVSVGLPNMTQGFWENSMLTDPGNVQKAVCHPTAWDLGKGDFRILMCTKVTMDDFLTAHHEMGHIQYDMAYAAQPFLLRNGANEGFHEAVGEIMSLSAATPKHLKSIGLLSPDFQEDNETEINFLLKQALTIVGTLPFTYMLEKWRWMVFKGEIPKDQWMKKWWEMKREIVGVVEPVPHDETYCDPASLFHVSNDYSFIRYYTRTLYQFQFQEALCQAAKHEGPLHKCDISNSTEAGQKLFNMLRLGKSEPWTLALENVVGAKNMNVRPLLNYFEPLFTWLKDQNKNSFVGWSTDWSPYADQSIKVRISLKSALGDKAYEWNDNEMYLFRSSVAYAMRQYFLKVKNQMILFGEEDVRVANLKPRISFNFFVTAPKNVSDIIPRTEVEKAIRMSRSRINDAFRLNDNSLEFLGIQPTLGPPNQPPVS
# ACE2, Q9BYF1 [7] = test: inhibitor screening kit; SARS-CoV-2 Spike:ACE2 (Example 3 assay)
Binder,IC50 [1],IC50 [2],IC50 [3],IC50 [4],IC50 [5],"IC50 (ACE2, Q9BYF1 [6])","IC50 (ACE2, Q9BYF1 [7])"
KTFLDKFNHEAEDLFPGPKWSAFLKEQSTLAQMYG (modifications not checked) [Seq28 (LNCOV-20)],41.7 nM,28.8 nM,24.6 nM,29.2 nM,31.5 nM,–,–
EQAKTFLDKFNHEAEDLFLWRALWRLWRSLWRLLWK (modifications not checked) [Seq33 (LNCOV-18)],20.2 nM,31.4 nM,17.8 nM,25.7 nM,28.8 nM,–,–
VEGFNCYFLWRALWRLWRSLWRLLWK (modifications not checked) [Seq18 (LNCOV-16)],–,–,–,–,–,> 10000 nM,> 10000 nM
GNYNYLYRLLWRALWRLWRSLWRLLWK (modifications not checked) [seq14 (LNCOV-12)],–,–,–,–,–,> 10000 nM,> 10000 nM
KVGGNYNYKLWRALWRLWRSLWRLLWK (modifications not checked) [Seq13 (LNCOV-11)],–,–,–,–,–,> 10000 nM,> 10000 nM
